# In the RNAGym collection of RNA variant scans (doi:10.1073/pnas.2313332121):
# Variants at the floor of the assay were thinned out.
# B1: TPR 5TU (parent)
# chain: GGAUCUUCUCGAUCUAACAAAAAAGACAAAUCUGCCACAAAGCUUGAGAGCAUCUUCGGAUGCAGAGGCGGCAGCCUUCGGUGGCGCGAUAGCGCCAACGUUCUCAACUAUGACACGCAAAACGCGUGCUCCGUUGAAUGGAGUUUAUCAUG
# Variants of: B1
# Assay: polymerase ribozyme fitness, log enrichment relative to wild type (log ratio); higher = more active; in vitro selection for triplet polymerase activity
# Procedure, shortened: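 Each subunit of a heterodimeric triplet polymerase ribozyme was represented by a PCR-built, transcribed mutant library that underwent triplicate single-round in vitro selection with frozen incubation at −7 °C. Extended constructs were recovered by gel excision, streptavidin-bead capture and RT-PCR, and Illumina sequencing of input and output libraries kept genotypes with ≥10 input reads and ≥1 read per output. Fitness is the logarithm of genotype enrichment relative to wild-type enrichment, from inverse-variance-weighted replicate averages, with a logarithm base of 2.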
row,Variant,polymerase ribozyme fitness (log ratio)
1,G83A G143A,-1.28
2,G84A C87U C95G A142C,-2.26
3,U82C C95U,-1.92
4,G80C G88C C103A A122U A138G,≤ -4.2
5,G81A C95A A147C,0.16
6,C85G A107U G126U C132U,≤ -4.2
7,G83C A113U U145C,-3.3
8,G84U G126A G136U,-3.56
9,C85G U145A,-1.65
10,C85G U145C,-2.42
11,U82G C95G,-1.65
12,G84A A147G,-2.67
13,C85G C99A,-3.3
14,C85G C99U,-3.51
15,G84C U101A A122G G126U,-3.41
16,C79A U144A A147C,≤ -4.2
17,G80A C85A A138G,-3.67
18,C85G G128A,≤ -4.2
19,G84A U102A C132U,-2.3
20,G84U G88A,-4.15
21,C85A A115G,-2.38
22,C85U A97C G124U,0.338
23,G81U A98G,-0.549
24,C79G C96U,-3.8

row,Variant,polymerase ribozyme fitness (log ratio)
1,G80C C87A A89C A97G U102C A137G A138G U151A,≤ -4.2
2,G83A A119C A120U C149U,-1.37
3,G84A U109G C114G U135G,≤ -4.2
4,C85U A107C C131U,-4.07
5,G83C G143U,-2.8
6,U82G A91U C114A A119U A121C G133C,≤ -4.2
7,G80C C87G C103G G143C,≤ -4.2
8,G80C C85A G94C C132U G141U U148C,≤ -4.2
9,G80C U82G C87U C99G,0.273
10,G84A G112C,-2.71
11,C85A U139C,-4.1
12,G83C U102G,-4.12
13,C85G A122G,-3.42
14,G83U G128C,-3.55
15,G83U U104C,-0.855
16,G84A G126A,0.571
17,G84A G126U,-0.0664
18,G84A C93G,-3.77
19,U82G C85G G92C C114A,≤ -4.2
20,C85A C105U A150G,-2.08
21,G84A U101C U146A,-0.212
22,C85G C105U,-1.58
23,G83A C132U,-0.931
24,C85G U144A C149U,-3.7

row,Variant,polymerase ribozyme fitness (log ratio)
1,C85G C96A A97G U102A C132A U135A,≤ -4.2
2,U82G C85A A89G G133A A142C,≤ -4.2
3,C85A G141A U146G,-1.68
4,G83U C114G A115U A119U U134A,≤ -4.2
5,G83A C125U,-1.29
6,G83A G92U A119G A122C C149G,-4.14
7,C85A U104A A115G,-3.42
8,G80A A91G A122U,-2.08
9,G84C C118A C125U G136U,-4.09
10,G84A U109A A115C C123A,-1.8
11,C85A G140C,-3.64
12,G81U G84C C118G,-3.16
13,G84U A122C,-2.13
14,C85U A115C,-0.617
15,G81C G88A A107C C125A C131U,≤ -4.2
16,C85G G117A,-2.7
17,G81C A137U U139G U144A,-3.35
18,G84U C99U,-1
19,C85U A137C,-3.1
20,G81C A107U,-3.29
21,G81U C125A,-0.8
22,C79U G80C C85U C93U,≤ -4.2
23,G83C C118A,-1.14
24,G80U G94A C96A U101A C149A,≤ -4.2

row,Variant,polymerase ribozyme fitness (log ratio)
1,G81U U90C C99A A142G,≤ -4.2
2,G83C C99G,-3.88
3,G81C G117U,0.139
4,U82A G83A A98G U127C,-3.36
5,G83A C129G,-3.81
6,C85U A119U A138C U145A,-3.86
7,C79U G141A,-2.05
8,C85U A120G A150C,-3.75
9,G81U G84C,-3.22
10,C85U A106U A113C A115U,≤ -4.2
11,G80A C85U C118A,-0.52
12,C85G A121U,-3.11
13,C85U A119C,-0.984
14,C85U A119G,-1.31
15,U82C U101A,0.112
16,C85A C108U,-3.66
17,G83C G117U C131U,-0.254
18,U82G G92C,-1.23
19,C85G A98U,-2.9
20,C85G A98G,-0.929
21,G80C C85U,-3.96
22,C79G C87U,-3.7
23,C85U A107U A138G A142G,≤ -4.2
24,G83A G92U G133C A142G,-3.79

row,Variant,polymerase ribozyme fitness (log ratio)
1,G84A C108U,-2.74
2,G83A C131U U139A G143A,≤ -4.2
3,C85A G86U,-3.2
4,C79U G143U,-4.12
5,G81A C96A A98C,-0.656
6,G84U A89U A98U G126U,-0.825
7,G83C G140U,-4.01
8,G81A A147U,0.732
9,G83C G124A A137G,-1.97
10,C85G A98U C129A U134C,-4.18
11,G80A A113C U145A,-3.89
12,C85G A150C,-4.1
13,C85G A150G,-2.67
14,C85G U104C,-2.69
15,C85G U104A,-2.4
16,G80A G83C,-3.01
17,G81A U104G C105A G136C U146C,≤ -4.2
18,U82A C93U A110G,-4.09
19,C85A C103U C123G A147U,-0.703
20,C85G G92C G128A,≤ -4.2
21,G80A A97G,-1.88
22,G84A C93G C125A G133U,≤ -4.2
23,C85A C116U A122C,-4.17
24,G83A G94A,-1.17

row,Variant,polymerase ribozyme fitness (log ratio)
1,G84A G143A,-1.65
2,G84A A120U C123A G126U,0.597
3,C79G C87U U144G,-4.04
4,U82G G92C A113U,-3
5,C85U A142U,-0.394
6,G81A A91U U101G C103A,≤ -4.2
7,G83U U135A,-1.05
8,C85G A107G,≤ -4.2
9,G84U C87G,-3.88
10,G83U C85A,-3.55
11,G84A U139A,-4.11
12,U82C U90G,≤ -4.2
13,G83C C85U C87U,-2.71
14,U82A C105U,0.242
15,U82G C93U,-1.51
16,G83U A91C,≤ -4.2
17,C85A A106C G140C,≤ -4.2
18,U82A A106U,-1.16
19,U82A A106C,-0.884
20,C85A A97U,-2.65
21,G84A C103G,-2.32
22,G84A C103U,-2.51
23,G80C G81C C96A U134A,≤ -4.2
24,U82A G88A A115U A121U,≤ -4.2

row,Variant,polymerase ribozyme fitness (log ratio)
1,C85A C103G,-3.36
2,C85A C103A,-4.12
3,C85A G133C,-3.5
4,G80U C93G,-2.97
5,G83A U101G U135C C149A,≤ -4.2
6,G84U C85G C96G,-3.84
7,U82G G133C G140A,-3.39
8,G83U G141C,-1.18
9,C79G G124A,-3.82
10,G84A C125A C132A G140U,-1.25
11,C85U A91C,≤ -4.2
12,C79G G81U C95U A107U C108U,≤ -4.2
13,G84A A121G C123U C131U,0.94
14,G83C A107U G143A U146C,≤ -4.2
15,U82G A115U,-1.61
16,C79G,-3.75
17,C79U,-1.47
18,C85U A119C C131G G141C,-0.0963
19,G84A U101G A122U U146C,-0.376
20,G84U C116U,-2.7
21,G84U C116G,-1.58
22,G83C C95U G136A C149U,-2.18
23,G84A A98U,-0.469
